Biological target: IssA (iron-sulfur storage protein A), native thioferrate-bound nanoparticle form from Pyrococcus furiosus (Pyrococcus furiosus)
Experiment: negative stain TEM; purified native IssA, untreated (20-300 nm) and after 3 M guanidinium chloride, 0.5 mM EDTA, 25 mM DTT (16-22 nm spheres); composition estimated from the volume of a 20 nm sphere, densities and the Fe:protein ratio

stoichiometry N: 170
Substance: IssA (iron-sulfur storage protein A), native thioferrate-bound nanoparticle form from Pyrococcus furiosus (natural protein)
